The series deals with T1, APPI-WT (SEQ ID NO: 25), soluble, expressed in Pichia pastoris.
T1 chain: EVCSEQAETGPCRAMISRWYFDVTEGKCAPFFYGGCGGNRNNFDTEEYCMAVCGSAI

B1: human mesotrypsin (catalytically active) (protein)
chain: IVGGYTCEENSLPYQVSLNSGSHFCGGSLISEQWVVSAAHCYKTRIQVRLGEHNIKVLEGNEQFINAAKIIRHPKYNRDTLDNDIMLIKLSSPAVINARVSTISLPTTPPAAGTECLISGWGNTLSFGADYPDELKCLDAPVLTQAECKASYPGKITNSMFCVGFLEGGKDSCQRDSGGPVVCNGQLQGVVSWGHGCAWKNRPGVYTKVYNYVDWIKDTIAANS
On to B1, for which the Kcat (s^-1) of hydrolysis of APPI by mesotrypsin (HPLC time course) is 0.0356 s⁻¹.

The values above are taken from US20180362616.
